We go through twelve molecules from US20060257938A1, “Method of screening for drugs that block ligand binding to a lipid binding protein” (priority 2005, published 2006).

Changes are numbered by the printed parent chain.

Sequences and labels used below:
B1: 72S 73V 74V (protein, listed as Rattus norvegicus)
chain: AFDGTWKVDRNENYEKFMEKMGINVVKRKLGAHDNLKLTITQEGNKFTVKESSNFRNIDVVFELGVDFAYSSVVGTELTGTWTMEGNKLVGKFKRVDNGKELIAVREISGNELIQTYTYEGVEAKRIFKKE
modifications: PEPTIDE (1)...(131) wild-type rat intestinal fatty acid binding protein
B2: 72T 73V 74N (protein, listed as Rattus norvegicus)
chain: B1 chain with S72T, V74N
modifications: PEPTIDE (1)...(131) wild-type rat intestinal fatty acid binding protein
B3: 72G 73F 74E (protein, listed as Rattus norvegicus)
chain: B1 chain with S72G, V73F, V74E
modifications: PEPTIDE (1)...(131) wild-type rat intestinal fatty acid binding protein
B4: 72T 73Q 74A (protein, listed as Rattus norvegicus)
chain: B1 chain with S72T, V73Q, V74A
modifications: PEPTIDE (1)...(131) wild-type rat intestinal fatty acid binding protein
B5: 72T 73V 74S (protein, listed as Rattus norvegicus)
chain: B1 chain with S72T, V74S
modifications: PEPTIDE (1)...(131) wild-type rat intestinal fatty acid binding protein
B6: 18V 31A 73W 72A (protein, listed as Rattus norvegicus)
chain: B1 chain with M18V, G31A, S72A, V73W, V74D
modifications: PEPTIDE (1)...(131) wild-type rat intestinal fatty acid binding protein
B7: 72S 73M 74A (protein, listed as Rattus norvegicus)
chain: B1 chain with V73M, V74A
modifications: PEPTIDE (1)...(131) wild-type rat intestinal fatty acid binding protein
B8: 72T 73V 74A (protein, listed as Rattus norvegicus)
chain: B1 chain with S72T, V74A
modifications: PEPTIDE (1)...(131) wild-type rat intestinal fatty acid binding protein
B9: 72A 73P 74V (protein, listed as Rattus norvegicus)
chain: B1 chain with S72A, V73P
modifications: PEPTIDE (1)...(131) wild-type rat intestinal fatty acid binding protein
B10: 21Y 78I 102I 72A (protein, listed as Rattus norvegicus)
chain: B1 chain with M21Y, S72A, V73A, V74D, L78I, L102I
modifications: PEPTIDE (1)...(131) wild-type rat intestinal fatty acid binding protein
B11: 72T 73W 74L (protein, listed as Rattus norvegicus)
chain: B1 chain with S72T, V73W, V74L
modifications: PEPTIDE (1)...(131) wild-type rat intestinal fatty acid binding protein
B12: 72A 73W 74V (protein, listed as Rattus norvegicus)
chain: B1 chain with S72A, V73W
modifications: PEPTIDE (1)...(131) wild-type rat intestinal fatty acid binding protein

A short description of the first test: Probe fluorescence ratio response to arachidonic acid relative to ADIFAB2. The following applies: arachidonic acid; response relative to ADIFAB2. It is filed as binding. Put shortly: (§1)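 Each fatty acid's response was expressed relative to ADIFAB2, the rI-FABP-L72A probe, as ΔR/ΔRreference. ΔR is the change in the background-corrected two-wavelength intensity ratio R=Fλ1/Fλ2 from its analyte-free baseline R0. Emission was read near about 420-480 nm for unbound and about 495-580 nm for FFA-bound probe.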
As for B1, the “DR/DR AA” value is 2.712.

On to B2, for which the “DR/DR AA” value came to 2.484.

For B3, the “DR/DR AA” value amounted to 0.910.

As to B4, the “DR/DR AA” value was determined as 2.392.

Consider B5, for which the “DR/DR AA” value was 2.540.

Consider B6, for which the “DR/DR AA” value worked out at 1.761.

Consider B7, for which the “DR/DR AA” value came to 2.759.

In the case of B8, the “DR/DR AA” value is 2.180.

For B9, the “DR/DR AA” value is on record as 2.354.

For the molecule B10, the “DR/DR AA” value is on record as 3.536.

Turning to B11, the “DR/DR AA” value was 2.721.

As to B12, the “DR/DR AA” value came out at 1.768.

Another test is described as follows: Probe fluorescence ratio response to linolenic acid relative to ADIFAB2. Format: binding. The following applies: response relative to ADIFAB2. A digest of the protocol: as §1
In the case of B1, the “DR/DR LNA” value is recorded as 3.088.

Turning to B2, the “DR/DR LNA” value is recorded as 2.362.

Take B3: the “DR/DR LNA” value is 2.415.

For B4, the “DR/DR LNA” value is on record as 2.850.

For B5, the “DR/DR LNA” value was determined as 2.579.

Consider B6, for which the “DR/DR LNA” value came to 2.770.

For B7, the “DR/DR LNA” value is given as 2.567.

In the case of B8, the “DR/DR LNA” value came to 2.597.

With B9, the “DR/DR LNA” value was 2.845.

Regarding B10, the “DR/DR LNA” value is 2.454.

Consider B11, for which the “DR/DR LNA” value is on record as 3.009.

For the molecule B12, the “DR/DR LNA” value is 2.752.

The nature of the next test: Probe fluorescence ratio response to linoleic acid relative to ADIFAB2. Format: binding. The following applies: response relative to ADIFAB2. A digest of the protocol: as §1
For B1, the “DR/DR LA” value worked out at 3.085.

With B2, the “DR/DR LA” value is reported as 2.407.

On to B3, for which the “DR/DR LA” value is on record as 1.467.

As for B4, the “DR/DR LA” value was 3.163.

For the molecule B5, the “DR/DR LA” value stood at 2.611.

With B6, the “DR/DR LA” value was 2.540.

For B7, the “DR/DR LA” value came to 2.470.

Take B8: the “DR/DR LA” value turned out to be 2.435.

As to B9, the “DR/DR LA” value is 2.735.

Turning to B10, the “DR/DR LA” value is recorded as 2.879.

Turning to B11, the “DR/DR LA” value was 2.819.

Consider B12, for which the “DR/DR LA” value was determined as 2.338.

Another test can be described thus: Probe fluorescence ratio response to oleic acid relative to ADIFAB2. It is filed as binding. The following applies: response relative to ADIFAB2. A digest of the protocol: as §1
With B1, the “DR/DR OA” value was 2.556.

Regarding B2, the “DR/DR OA” value turned out to be 2.491.

As for B3, the “DR/DR OA” value is on record as 0.585.

In the case of B4, the “DR/DR OA” value is 3.136.

Consider B5, for which the “DR/DR OA” value came to 2.670.

On to B6, for which the “DR/DR OA” value is 1.738.

On to B7, for which the “DR/DR OA” value worked out at 2.443.

As for B8, the “DR/DR OA” value is 1.950.

For the molecule B9, the “DR/DR OA” value is given as 2.187.

In the case of B10, the “DR/DR OA” value turned out to be 3.424.

For the molecule B11, the “DR/DR OA” value stood at 2.340.

B12: the “DR/DR OA” value came out at 1.574.

A short description of a further test: Probe fluorescence ratio response to palmitic acid relative to ADIFAB2. The following applies: response relative to ADIFAB2. It is filed as binding. A digest of the protocol: as §1
For B1, the “DR/DR PA” value is given as 2.091.

For the molecule B2, the “DR/DR PA” value worked out at 2.250.

As for B3, the “DR/DR PA” value is 0.981.

Take B4: the “DR/DR PA” value was determined as 3.473.

As for B5, the “DR/DR PA” value was 2.629.

In the case of B6, the “DR/DR PA” value was determined as 2.218.

In the case of B7, the “DR/DR PA” value is 2.524.

With B8, the “DR/DR PA” value is recorded as 2.362.

For B9, the “DR/DR PA” value stood at 2.406.

On to B10, for which the “DR/DR PA” value is given as 1.870.

For the molecule B11, the “DR/DR PA” value worked out at 2.727.

In the case of B12, the “DR/DR PA” value is 2.525.

The next test in a line: Probe fluorescence ratio response to palmitoleic acid relative to ADIFAB2. The following applies: response relative to ADIFAB2. It is filed as binding. The text has this:
(§2) In an alternate preferred embodiment, the protein is rI-FABP that has Ala substituted for Leu at position 72 (rI-FABP-L72A) with the resulting probe named ADIFAB2. […] Other probes useful in embodiments of the invention are shown in Tables 1-6 and are also described in U.S. application Ser. No. 11/085,792, filed Mar. 21, 2005 which is incorporated herein by reference. The indicated substitutions are with reference to the ADIFAB protein of SEQ ID NO: 2.
(§3) ADIFAB2 also has an altered spectral response, making it especially useful for measurements of FFAu in blood samples (Apple et al, Clinical Proteomics, (2004) 1:41-44, U.S. patent application Ser. No. 10/670,958). The wavelengths at the maximum intensities emitted by these fluorescently-labeled I-FABP's in the absence of FFA is about 420 to 480 nm. The emission wavelengths at the maximum intensities emitted by these fluorescently-labeled I-FABP's with FFA bound are between about 495 to 580 nm. Experiments typically involve measuring the fluorescence response within both emission maxima or at wavelengths for which the effect of interfering molecules such as hemoglobin can be eliminated as described in U.S. application Ser. No. 10/670958 and PCT/US2004/030521 and the calculation of the ratio ‘R’ of the two fluorescence intensities. The baseline value for this ratio, measured in the absence of analyte, is designated R0.
(§4) The intensity ratio (“R” value) is determined as follows. The ratio is calculated using the following formula: R=Fλ1/Fλ2 wherein, Fλ1 is the measured fluorescence intensities (intensity of sample with probe present minus intensity of sample without probe present) at wavelength 1 and Fλ2 is the measured fluorescence intensities (intensity of sample with probe present minus intensity of sample without probe present) at wavelength 2. Then, for a given probe, ΔR, the difference in R value between the measurement in the presence of the test compound (agent) and in the absence of the test compound (agent), is calculated as follows: ΔR=R+agent−R0 In some embodiments, the ΔR value may then be compared to some reference, for example, an agent with a known affinity for a given probe, by ΔR/ΔRreference. Measurements of fluorescence intensities are obtained using standard techniques.
In the case of B1, the “DR/DR POA” value came out at 3.322.

In the case of B2, the “DR/DR POA” value amounted to 2.816.

Regarding B3, the “DR/DR POA” value was found to be 2.519.

As to B4, the “DR/DR POA” value is recorded as 3.632.

Regarding B5, the “DR/DR POA” value was 2.909.

Take B6: the “DR/DR POA” value is 3.184.

In the case of B7, the “DR/DR POA” value was 2.854.

B8: the “DR/DR POA” value came to 3.011.

For B9, the “DR/DR POA” value is given as 3.613.

With B10, the “DR/DR POA” value is 2.089.

With B11, the “DR/DR POA” value came out at 3.574.

For the molecule B12, the “DR/DR POA” value stood at 3.856.

Another test in a line: Probe fluorescence ratio response to stearic acid relative to ADIFAB2. Format: binding. The following applies: response relative to ADIFAB2.
Excerpt: as §2, §3, §4
For the molecule B1, the “DR/DR SA” value stood at 1.058.

Regarding B2, the “DR/DR SA” value stood at 1.942.

For B3, the “DR/DR SA” value is 0.239.

As to B4, the “DR/DR SA” value came to 2.318.

As to B5, the “DR/DR SA” value was determined as 2.195.

Consider B6, for which the “DR/DR SA” value turned out to be 0.722.

Take B7: the “DR/DR SA” value worked out at 1.776.

Take B8: the “DR/DR SA” value is on record as 1.146.

As for B9, the “DR/DR SA” value is reported as 1.178.

For B10, the “DR/DR SA” value is on record as 2.774.

On to B11, for which the “DR/DR SA” value is listed as 1.217.

On to B12, for which the “DR/DR SA” value turned out to be 0.602.
